The test system of this data set is Saccharomyces cerevisiae. The data set can be described thus: transcriptional activation domain activity (GFP:mCherry ratio, weighted mean of sorted bins, harmonized to initial dataset scale) (arbitrary fluorescence ratio units); higher = stronger transcriptional activation. The note with it: beta-estradiol 1 µM; induction time 4 h. Put shortly: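 In diploid yeast carrying a GFP reporter, barcoded protein tiles fused to an estradiol-inducible synthetic transcription factor were integrated at the URA3 locus. Cultures diluted 1:5 into SC with 1 uM beta-estradiol were kept at 30 °C for 4 hours, then sorted by GFP:mCherry ratio into 8 bins before barcode sequencing. Tiles with under 50 reads were excluded. The activation activity reported here is the read-weighted mean of bin median fluorescence, averaged across barcodes and linearly rescaled to the initial dataset.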
Turning to “TVPVLVLVIYDWPRDRSNAYQVVLAISIWCWGVYQLLYIFLCGLYNPNFSTFR”, the “transcriptional activation domain activity” value stood at 59700.

As to “MGCLHFSLFVAFWVFIAFPPSVSYHLALYLLLLLLFILFLLMCGLLRAFGLPV”, the “transcriptional activation domain activity” value turned out to be 36700.

For the sequence “KPAGIMMFYFPCLYGTFLVGCLGHEINILSMAIANAKLFLLSFLMRGMLCTWN”, the “transcriptional activation domain activity” value came to 43200.

For the sequence “QLQCIPIFGNFVVLILCLKYIYSCNHFGSVTSHHTFHMLAVVLSTFFISLIPV”, the “transcriptional activation domain activity” value was 43100.

“ILLRRAWTVNAEMLLHKFDPRLFPLYFRILYPTWDTCSIPAPSRLVGAAKQWL”: the “transcriptional activation domain activity” value amounted to 46700.

As to “AAERRQQGHRAKENEKRRQEEARRGRKERGAGGGKAKAGRKPAGQPRRRRSRE”, the “transcriptional activation domain activity” value was 32900.

As for “MSWPFFYLSFSLFFPPLLLDRGLLLLCGFFFLFLYIFLPGILWHLEAWFFLLV”, the “transcriptional activation domain activity” value was 59300.

Consider “MYFCLDKLRRLACFLSLFFVSFFLFLCLTLFFALLFIISLSLLMYRCVLISLC”, for which the “transcriptional activation domain activity” value is 14000.

Regarding “PLLRVLQICSFKDLMFDVPHLHRFISNAELLRTLNHLDVSFSSYSVFLQLVGF”, the “transcriptional activation domain activity” value was found to be 70500.

Take “GFSCHTRILGRPIIISTSTSYIGILLDLVRTFYFLYLLLRILLKVFLAVWCFL”: the “transcriptional activation domain activity” value turned out to be 63700.

With “CSNIGAQKNQCEFVQLNCHGFNALYLELFYCSKLWKPIIIAILLSCLLMLFGA”, the “transcriptional activation domain activity” value was found to be 42200.

Regarding “APTDETGDAETKPRGRGRPKGSGTAKKAESQPESAEPTTARRGRKRASAAAES”, the “transcriptional activation domain activity” value was determined as 43400.

As for “QANGVEKAVENLSISSPHPDTHAQSAPEQNGPKKKPNRAKARLARRAAEYEAL”, the “transcriptional activation domain activity” value stood at 14100.

On to “MGLPYFWFYKHTCFSVNYVSSLFVLFFFYFLVGVVGYVTMGLVIFFLFFFLFF”, for which the “transcriptional activation domain activity” value stood at 70300.

Consider “SKNDSASDEEEEGDDLPSAYCTVILNHQKVFKTRTKPKNSKPFFNAGCERFIP”, for which the “transcriptional activation domain activity” value was 57400.

“KEVASADTKPADAPAGEAKAPKKEKKEKEKKPAEAAEGGKKKEKAAGGGGKAA”: the “transcriptional activation domain activity” value is 36100.

With “IRRHFNRKYHQCLLVVIVLGVYLAIGLNWGRFYLVCWVLLHFCIVILGPLYFL”, the “transcriptional activation domain activity” value was determined as 53400.

Regarding “CPFLKCTVYLRTIKHYLFVLVFLPLDALFSIALSCYALSYARVLVVPLALSIF”, the “transcriptional activation domain activity” value turned out to be 53700.

Turning to “MDFNQLLAIFYDCIFPFREFYRWLYYGGVVQKNYFLHRELSFTLSNDAYLRFK”, the “transcriptional activation domain activity” value came out at 41100.

As to “SKQAGVGGEDEGEEDVPEDFGHSDNIRKKLLEVLGRDRRDRVLSSLYIVRADG”, the “transcriptional activation domain activity” value was found to be 43800.

“RLLRNLPLIAGHGPKYLQGIDKFVENEFLTVVGTWMRATKFDVLSFMIHYVTL”: the “transcriptional activation domain activity” value is 65500.

For “SDDSSEASAIDSGDSSSQSSSDSDSEDAKKKTRRKTAKAKAKAKSKSKNSKKV”, the “transcriptional activation domain activity” value was found to be 24800.

Turning to “IHSMYRPFQMLTMDFMVMNLCLFSAILLGILYLFFGAFHLVFTVVYDFKLWQV”, the “transcriptional activation domain activity” value was found to be 43200.

As for “MSWPDRGYYYCLMVISLLSAKLMHLFSHFTALPLILFLLYLPTFLLLDLLVVF”, the “transcriptional activation domain activity” value came to 60500.

On to “APPSSKPSPPPTSAASPAAPRAASPRPRAASSAGCRPRRGATRCCSRARASRS”, for which the “transcriptional activation domain activity” value is 39400.

For “RRKEKKPRFAKKDKGSKEPVSKTCRIALRIKLCHGNICVMEVSLSVLASLVLH”, the “transcriptional activation domain activity” value was 53100.

As for “MSDLPLFFYFYFITVCITSWRFTCILAPGLFFSFYFFLCFFCLFSLLSLHDLM”, the “transcriptional activation domain activity” value was found to be 20700.

Turning to “DDENEGSDTEAEAPAEKPKRGRKKAAPKEGADGEEEAPAAKKAAPRGRGKKAA”, the “transcriptional activation domain activity” value was 6980.

On to “KIAAGAALATAAGVGLHHLRERQRSQSRSSSSERSGRSRSRHRLRHAAELGAA”, for which the “transcriptional activation domain activity” value stood at 64000.

In the case of “VVNVLLSVFNGYDTGKSGIRCNPLPNSFIPLIMTAMLLSMLTFLLVTTIACYV”, the “transcriptional activation domain activity” value was 38300.

Take “MGLKGLLRSTIYVSSLVWLGWVVNLGQFLLFPFYSVTLKLSYNVNACIISVLV”: the “transcriptional activation domain activity” value was found to be 68500.

“STFGKYVHCRLLEGNTGMKIPQAAVIALIFRFLEKLVNTRLAVISRRWAMVTL”: the “transcriptional activation domain activity” value turned out to be 67000.

As for “ASIISQRSGIVRALSRLMIFDRKLRVKDTHLRRLQHRIVIQSLVFGAFFSCVG”, the “transcriptional activation domain activity” value was determined as 54700.

With “QVCFLGLSFRCVIGIDQMRCRSGYCSFVSLLYTLGNLSGVFSGIFAYAFSHLN”, the “transcriptional activation domain activity” value amounted to 66500.

For “NSWLCGFQGIALMYLVLLLLCFGVLLIANLHFLSVYRSTWLQIHMTPMIVLSF”, the “transcriptional activation domain activity” value is 57400.

Regarding “LVGDANGCRVLPAFQLWPLLSTFNLLYSISSTSWLLYWVFTSLCYPAIFLVCL”, the “transcriptional activation domain activity” value amounted to 55700.

As for “KALLLLLRIAHLQFNKIPLTLIFDQFLNVAILCDMYSKGNEKYLLISWVFHRE”, the “transcriptional activation domain activity” value was 28800.

With “MGVFILFAFLFFLMFVLLHFFLLLSFFLLSSLMGVYFFPHSMITYMFSFGLRS”, the “transcriptional activation domain activity” value came to 44100.

With “RVEEEGKSGVPAGDRFCGISLRPGILTDGEAGGVKVGKIGTGGKTARATVAES”, the “transcriptional activation domain activity” value came out at 22900.

For the sequence “SLHLCFSMCLTMIGYIILIKIDTLEHKAVAYFACFLLTSGAFAPSCLFHSWHN”, the “transcriptional activation domain activity” value worked out at 33300.

For the sequence “CFILLHLVLSFFALSCLYCLVLLLLPLPLILLFLLSSPWKFVPVHLQRHFVVV”, the “transcriptional activation domain activity” value worked out at 68600.

On to “AYNALQILSWTCRLICSSVLSLHWFRPGHESILQLYDSITFFLTMFFIELLSH”, for which the “transcriptional activation domain activity” value turned out to be 49100.

Take “CHLLLVCLFYDFLTIEYYLYGSLLLLLLHDCFLLKICEFIVRPTCLPGLFHAK”: the “transcriptional activation domain activity” value came out at 60500.

As to “LCMELVLHYIYVVAISNSSPDWSAYTPFQLSMLGYFNLHHIWLKLLIPWRFFR”, the “transcriptional activation domain activity” value came to 63800.

“MMGLSLGFKCCFQMLSLFSILFSFHLVLRLLSFPFFSCSYCILYRFLFFCWGW”: the “transcriptional activation domain activity” value came out at 24500.

With “MTCCLNLFCLLLINLIFFVCACCLLVFSLLAIQNKLPECILLPINIFKMLTIL”, the “transcriptional activation domain activity” value worked out at 52900.

In the case of “KSKKKRRMEEEEEGDEEEEEEQREREEERGERGEREARVRREGKAKKSASSRD”, the “transcriptional activation domain activity” value turned out to be 17300.

On to “QVGRKANQKEEKETEKERTEKDKKQGRVGVGGVAKTAIVAGAWCYVVGVVAEL”, for which the “transcriptional activation domain activity” value was 34600.

As for “LQLYLSSHHREMLVDIWDRLWPWMVFFHVNRGCIADPFMLRPHPCFNLLHFIV”, the “transcriptional activation domain activity” value is 65600.

As to “AYAVMVVIQSLFLCLFGMAFQFSFFLNANFVVVYSIFVLYGWAMICFALFLST”, the “transcriptional activation domain activity” value amounted to 46800.

For “GAARVQVDFWFFLFVYYGLYNLTALIWITKVFNLYSLNWWPQSLGFPLTVSLI”, the “transcriptional activation domain activity” value was 61300.

As for “GKPVIKISSFAPKLTVISSKQRPRRLSIKGSDGKDYQFLLKGHEDLRQDERVM”, the “transcriptional activation domain activity” value was determined as 58400.

On to “MLLHLLPILCPDCIFSASITFAVLSFLLSPCPLLPFSLLPLLCFFISIILRSV”, for which the “transcriptional activation domain activity” value was 42100.

Consider “MRRVARSTKGGKVRSLAALVVVGNGNGVGGFGEGRAVDSAQAVAKATAAATKN”, for which the “transcriptional activation domain activity” value is 32500.

For “LTDIQRASKLFRVMQDFRYLRLLVHRITLWIDDQHCASLGTNIYYTFLMRGRF”, the “transcriptional activation domain activity” value was 53200.

With “LFLLFTFPLLGIFDTCFLTSMLFMALCFLFILLLETSFFFFFSLHPNFISWPY”, the “transcriptional activation domain activity” value is 62600.

Take “KIHLLPTGVHQWNLKVKDLIHCLKLFHYAEIMYALSIVPLKAAIIFQCLRVFV”: the “transcriptional activation domain activity” value was 47200.

In the case of “DFLLSLHGIRTVYLFMFVINSFLHPLRTLIHLWCLIFISVYQHRLFFFFFFFF”, the “transcriptional activation domain activity” value amounted to 61200.

Consider “GIPDELAWMLCLDGLDCIDGETYNLPLLRQFMELFPSLPLTSLLTAYFLYMDI”, for which the “transcriptional activation domain activity” value is 119000.

Take “MLMTKYMCKGSRLIFIFFCVFRLSMLFTFFSIVSDSCLYWCRVISYLVLLMTL”: the “transcriptional activation domain activity” value amounted to 63700.

As for “MLVICLLDLLLSIMRCKRNLIQFILVCTKDGFCVGLMTKSYKRSLLVKRLFCT”, the “transcriptional activation domain activity” value amounted to 39300.

Take “TLTSPQGSDLASNSATQYKPDLEDFLMQNSNFNGLMINPSSLVEVVGGYNDPN”: the “transcriptional activation domain activity” value turned out to be 83200.

For “TAAPYHKLAYHPALSPKISLGFWPFQHILTFLDYKEYVLQWTLLVTVQIPWFN”, the “transcriptional activation domain activity” value was 64700.

“REFRVVEEEEEEEEEEEEEEEEEEEEDEEEGGLGGESVEEGGRRDKGKGVVKE”: the “transcriptional activation domain activity” value stood at 20100.

“LLPLFFASIGFAIVSMILIFSSNVVCLLICPHQALSRIVASYLLRHDPKYLCA”: the “transcriptional activation domain activity” value came out at 71600.

For “MGCFFCYCSIVLFRSSLYIISFFLLFFFLCFLFFYHIWVGVLFPSIFPLFYIR”, the “transcriptional activation domain activity” value is 65400.

Regarding “PNSSTSMDWLDNVIYTNRFVSGDDGSNSKTKNLDSNMFSNDFNFENQFDEQVS”, the “transcriptional activation domain activity” value came to 91700.

Take “FAGAFKHFQRLGPVSQWDLLAKLPLIVFWILFTCCSLHFYLLFLFLFFIRWVS”: the “transcriptional activation domain activity” value is 55200.

For the sequence “MDDTDSSAAGGARWIVVSTGGRAQSPEDEAGLRRVKGACRARQNKSKNAILIH”, the “transcriptional activation domain activity” value amounted to 47100.

Regarding “MMSDSGQDEKTLPQADKNGTSQVAVPLEATEASEQALLRRLLRKTDLLVMPGL”, the “transcriptional activation domain activity” value worked out at 24200.

For “DMKDRGLFQCNPYRYAKECCRFVGLFYTAIWLVLRGTHIGHYVISATCLAVLW”, the “transcriptional activation domain activity” value came out at 68200.

As for “KISVCWLWGLDSLHLAFCIYMMYWYLITNFCVVAELGCFNIQTFFASKAFVIL”, the “transcriptional activation domain activity” value worked out at 49800.

In the case of “GKAKASKTAGAGLAKASKAPKVPKAGGKGAKASKGAKAPKASKAAGAAGAKAS”, the “transcriptional activation domain activity” value stood at 28400.

Consider “MNPPDNIIILPFHPLPFFWLLIFIPFSLSLPSSFFFNSNLSFLFFFFVFCFMI”, for which the “transcriptional activation domain activity” value stood at 68600.

The values above are taken from the supplement of paper PMC12636428.
